Measurements reported in patent US20100266576A1 (CENTRE NATIONAL DE LA RECHERCHE SCIENT, published 2010).

T1: peptide Aβ 29-40
T1 construct: Bought from Bachem; also called Aβ42 fragment 29-40
T1 peptide: GAIIGLMVGGVV

T2: peptide Aβ 33-42
T2 construct: Bought from Bachem; also called Aβ42 fragment 33-42
T2 peptide: GLMVGGVVIA

T3: Aβ42 fragment 1-11
T3 construct: Bought from Bachem; also called Aβ 1-11; printed as fragment 1-10 in the result sentence
T3 peptide: DAEFRHDSGYE

T4: Aβ42 fragment 10-20
T4 construct: Bought from Bachem; also called Aβ 10-20
T4 peptide: YEVHHQKLVFF

T5: Aβ42 fragment 15-25
T5 construct: Bought from Bachem; also called Aβ 15-25
T5 peptide: QKLVFFAEDVG

T6: Aβ42 fragment 22-35
T6 construct: Bought from Bachem; also called Aβ 22-35
T6 peptide: EDVGSNKGAIIGLM

B1: VHH 61-3 (VHH)
VHH: EVQLQASGGGLVQAGGSLRLSCAASGSTFRINRMGWYRQAPGKQRELVASINSGGSTNYADSVKGRFTISRDNAKGTVNLTMNSLKPEDTAVYYCNRVTPWPYWGQGTQVTVS
notes: Expressed from pET22 and purified by Ni-NTA; also called CNCM I-2933
B2: VHH V31-1 (VHH)
VHH: EVQLQASGGGSVQPGGSLRLSCAASGFIFGWSTMSWVRQAPGKGLEWVSTISGGGSATTYTDSVKGRFTISRDRAKNTLYLQMNSLKPEDTAIYYCNADVSTGFRYQRKDYWGRGTQVTVS
notes: Camelid VHH subcloned from pHEN1 into pET22, expressed in the E. coli periplasm and purified by Ni-NTA IMAC; It was detected with anti-c-myc or anti-His tag antibodies; also called VHH V31-1 antibody; CNCM I-2936

Legend:
[1] = target: T7, amyloid β peptide 42 (Aβ42); assay: immunohistochemistry on human AD brain sections
T7 construct: Synthetic peptide bought from Bachem, used as monomer/oligomer mixtures after incubation at 37 C; also called Aβ42 monomer; Aβ42 oligomers
Method: Immunostaining of brain tissue was performed on […] thick paraffin sections. Sections were de-paraffinized in xylene, rehydrated through ethanol
(100%, 96%, and 90%) and finally brought to water. They were incubated in 90% formic acid, washed again in water, quenched for endogenous peroxidase with 3% hydrogen peroxyde and 20% methanol, and finally washed in water. Non-specific binding was blocked by incubating the sections for 10 minutes in 2% bovine serum albumin in TBS+0.5% Tween. Appropriate dilutions of primary antibodies were then applied overnight in a humidified chamber at room temperature (typically 1 μg/ml for VHH, and 1:200 for 6F/3D mAb). Slides were washed with TBS-Tween and incubated with secondary antibodies (rabbit anti-His Tag or biotinylated anti-mouse immunoglobulins) in TBS-Tween at room temperature for 2 hours. Slides were then incubated with either peroxidase goat anti-rabbit immunoglobulins or streptavidine-peroxidase fusions, and developed with diaminobenzidine (DAB) for 2 minutes. After washing with TBS-Tween, slides were counter-stained with hematoxylin and eosin.

[2] = target: T1, peptide Aβ 29-40; assay: competition ELISA in solution (Friguet method)
Method: (§1) Binding affinity of VHH antibodies was determined as described in Friguet et al., (1985). Various concentrations of Aβ peptides were incubated in solution overnight at 4° C. with a known quantity of VHH antibody until equilibrium was reached. The VHH antibody concentration used was determined by preliminary ELISA calibrations. Each mixture (100 μl) was transferred to a well of a microtiter plate previously coated with antigen and was incubated for 20 min at 4° C. The plates were washed with buffer A and free VHH antibodies were detected by adding β-galactosidase-conjugated goat anti-rabbit Igs (Biosys, Compiegne, France) and 4-methylumbelliferyl β-D galactoside (Sigma). Fluorescence was read (Fluoroskan, Labsystem, Finland) at 460 nm, after excitation at 355 nm. KD was estimated from the slope of the regression curve obtained by plotting the reciprocal of the fraction of bound antibody versus the reciprocal of the molar concentration of antigen.

[3] = target: T2, peptide Aβ 33-42; assay: competition ELISA in solution (Friguet method)
Method: as §1

[4] = target: T3, Aβ42 fragment 1-11; assay: competition ELISA for KD (Friguet method) with Aβ fragment peptides
Method: as §1

[5] = target: T4, Aβ42 fragment 10-20; assay: as above
Method: as §1

[6] = target: T5, Aβ42 fragment 15-25; assay: as above
Method: as §1

[7] = target: T6, Aβ42 fragment 22-35; assay: as above
Method: as §1

T7 sequence (peptide, as listed by the source): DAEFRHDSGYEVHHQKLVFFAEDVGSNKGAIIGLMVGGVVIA

Binder | binding result [1] | Kd [2] [nM] | Kd [3] [nM] | binding result [4] | binding result [5] | binding result [6] | binding result [7]
B1 | binds | – | – | – | – | – | –
B2 | – | 20 | 20 | no binding | no binding | no binding | no binding
